Numbering of substitutions follows the chain as printed. In names and notes the source's numbering stands.
How the values were obtained:
[1] = target: T1, human FcRn (R&D Systems Cat. No. 8639-Fc) (human, UniProt P55899 24-297; P61769 21-119); experiment: SPR, FcRn captured; Expt 1
[2] = target: T1, human FcRn (R&D Systems Cat. No. …); experiment: SPR, FcRn captured; Mean
[3] = target: T1, human FcRn (R&D Systems Cat. No. …); experiment: SPR, FcRn captured; Expt 3
[4] = target: T1, human FcRn (R&D Systems Cat. No. …); experiment: SPR, FcRn captured; Expt 2
[5] = target: T2, Human C1q (Sigma Cat. No. 20476), HRP-labelled (human, UniProt P02745 23-245; P02746 28-253; P02747 29-245); experiment: ELISA, antibody coated, HRP-C1q; Expt 1, buffer alone 0.061
T2 construct: Coupled to horse-radish peroxidase with Lightning-Link kit; also called HRP-labelled C1q

[6] = target: T3, Histidine-tagged recombinant human FcγRI (CD64) (human, UniProt P12314 16-288, limits assumed); experiment: SPR, His-FcγRI captured; mean;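 further: biacore T200 SPR at 25 °C, anti-His surface capturing FcγRI, Fc-variant antibodies injected at 100 µg/mL for 1 min, signal near injection end minus third buffer blank, three repeats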
T3 construct: bought

[7] = target: T3, Histidine-tagged recombinant human …; experiment: SPR, His-FcγRI captured; Expt 2;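 further: biacore T200 SPR at 25 °C, Fc-variant antibodies at 100 µg/mL flowed 1 min over anti-His-captured receptor, signal read near injection end minus third buffer blank; antibody analyte injected at 100 µg/mL for 1 min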
[8] = target: T3, Histidine-tagged recombinant human …; experiment: SPR, His-FcγRI captured; Expt 1;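 further: SPR at 25 °C on anti-His antibody chip capturing FcγRI, Fc-variant antibodies injected at 100 µg/mL for 1 min, signal near end of injection minus buffer blank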
[9] = target: T3, Histidine-tagged recombinant human …; experiment: SPR, His-FcγRI captured; Expt 3;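 further: biacore T200 SPR at 25 °C, Fc-variant antibodies at 100 µg/mL flowed 1 min over anti-His-captured FcγRI, signal taken just before injection end minus a buffer blank cycle; antibody analyte injected at 100 µg/mL for 1 min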

T1 sequence (P55899 24-297 limits assumed, chain 1 of 2): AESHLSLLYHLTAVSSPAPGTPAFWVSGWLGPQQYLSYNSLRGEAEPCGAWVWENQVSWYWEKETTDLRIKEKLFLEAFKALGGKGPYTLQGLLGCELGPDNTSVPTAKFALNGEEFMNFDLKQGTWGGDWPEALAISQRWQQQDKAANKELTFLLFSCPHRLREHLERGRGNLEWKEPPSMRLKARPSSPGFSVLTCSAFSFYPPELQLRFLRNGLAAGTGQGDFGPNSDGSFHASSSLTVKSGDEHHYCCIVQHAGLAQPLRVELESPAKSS
T1 sequence (P61769 21-119 limits assumed, chain 2 of 2): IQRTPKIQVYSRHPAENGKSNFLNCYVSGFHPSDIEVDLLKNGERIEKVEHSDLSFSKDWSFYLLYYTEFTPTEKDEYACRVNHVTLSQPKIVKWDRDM

B1: anti-CD20 (rituximab) human IgG1 L234A/L235A/K322A (antibody)
heavy: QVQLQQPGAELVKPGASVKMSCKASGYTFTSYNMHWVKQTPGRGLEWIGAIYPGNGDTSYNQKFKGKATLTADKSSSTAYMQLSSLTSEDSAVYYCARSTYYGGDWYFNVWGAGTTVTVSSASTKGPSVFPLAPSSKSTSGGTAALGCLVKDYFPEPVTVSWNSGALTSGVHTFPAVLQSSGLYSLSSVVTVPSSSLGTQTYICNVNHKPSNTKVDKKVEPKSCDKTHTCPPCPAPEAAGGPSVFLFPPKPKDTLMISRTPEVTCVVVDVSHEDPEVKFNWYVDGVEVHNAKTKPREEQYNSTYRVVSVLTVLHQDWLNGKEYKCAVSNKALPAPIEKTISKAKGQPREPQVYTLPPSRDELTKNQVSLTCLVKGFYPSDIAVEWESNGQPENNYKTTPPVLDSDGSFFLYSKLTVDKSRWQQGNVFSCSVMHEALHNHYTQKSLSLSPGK
light: QIVLSQSPAILSASPGEKVTMTCRASSSVSYIHWFQQKPGSSPKPWIYATSNLASGVPVRFSGSGSGTSYSLTISRVEAEDAATYYCQQWTSNPPTFGGGTKLEIKRTVAAPSVFIFPPSDEQLKSGTASVVCLLNNFYPREAKVQWKVDNALQSGNSQESVTEQDSKDSTYSLSSTLTLSKADYEKHKVYACEVTHQGLSSPVTKSFNRGEC
notes: EU numbering; also called 2-74; copies: 2 + 2
Corrected and normalised response (% of wild-type reference) [1]: 94 % of wild-type reference | Corrected and normalised response (% of wild-type reference) [2]: 94 % of wild-type reference | Corrected and normalised response (% of wild-type reference) [3]: 93.3 % of wild-type reference | Corrected and normalised response (% of wild-type reference) [4]: 94.7 % of wild-type reference

B2: anti-CD20 (rituximab) human IgG1 L234R/L235K/G236R (antibody)
heavy: QVQLQQPGAELVKPGASVKMSCKASGYTFTSYNMHWVKQTPGRGLEWIGAIYPGNGDTSYNQKFKGKATLTADKSSSTAYMQLSSLTSEDSAVYYCARSTYYGGDWYFNVWGAGTTVTVSSASTKGPSVFPLAPSSKSTSGGTAALGCLVKDYFPEPVTVSWNSGALTSGVHTFPAVLQSSGLYSLSSVVTVPSSSLGTQTYICNVNHKPSNTKVDKKVEPKSCDKTHTCPPCPAPERKRGPSVFLFPPKPKDTLMISRTPEVTCVVVDVSHEDPEVKFNWYVDGVEVHNAKTKPREEQYNSTYRVVSVLTVLHQDWLNGKEYKCKVSNKALPAPIEKTISKAKGQPREPQVYTLPPSRDELTKNQVSLTCLVKGFYPSDIAVEWESNGQPENNYKTTPPVLDSDGSFFLYSKLTVDKSRWQQGNVFSCSVMHEALHNHYTQKSLSLSPGK
light: B1 light
notes: EU numbering; also called 2-40; copies: 2 + 2
Mean Absorbance [5]: 0.055 absorbance (450 nm)

B3: anti-CD20 (rituximab) human IgG1 L234R/L235I/G236R (antibody)
heavy: B2 heavy with K239I
light: B1 light
notes: EU numbering; also called 2-39; copies: 2 + 2
Mean Absorbance [5]: 0.169 absorbance (450 nm)

B4: anti-CD20 human IgG1 L234S/L235E/G236R (antibody)
heavy: B2 heavy with R238S, K239E
light: B1 light
notes: also called 2-46
Corrected response (RU), Mean [6]: 5.3 RU | Corrected response (RU) [7]: 5.3 RU | Corrected response (RU) [8]: 3.7 RU | Corrected response (RU) [9]: 6.9 RU

B5: anti-CD20 human IgG1 L234S/L235I/G236R (antibody)
heavy: B2 heavy with R238S, K239I
light: B1 light
notes: also called 2-49
Corrected response (RU), Mean [6]: 4.8 RU | Corrected response (RU) [7]: 4.2 RU | Corrected response (RU) [8]: 3.9 RU | Corrected response (RU) [9]: 6.4 RU

B6: anti-CD20 human IgG1 L234T/L235D/G236R (antibody)
heavy: B2 heavy with R238T, K239D
light: B1 light
notes: also called 2-55
Corrected response (RU), Mean [6]: 32.4 RU | Corrected response (RU) [7]: 28.9 RU | Corrected response (RU) [8]: 6 RU | Corrected response (RU) [9]: 62.3 RU

B7: anti-CD20 (rituximab) human IgG1 L234F/L235E/P331S (antibody)
heavy: B2 heavy with R238F, K239E, R240G, P335S
light: B1 light
notes: EU numbering; also called 2-75; copies: 2 + 2
Corrected and normalised response (% of wild-type reference) [1]: 96.1 % of wild-type reference | Corrected and normalised response (% of wild-type reference) [2]: 96.5 % of wild-type reference | Corrected and normalised response (% of wild-type reference) [3]: 96.3 % of wild-type reference | Corrected and normalised response (% of wild-type reference) [4]: 97.1 % of wild-type reference

B8: anti-CD20 (rituximab) human IgG1 L234K/L235S/G236R (antibody)
heavy: B2 heavy with R238K, K239S
light: B1 light
notes: EU numbering; also called 2-24; 1-89; copies: 2 + 2
Corrected and normalised response (% of wild-type reference) [1]: 100 % of wild-type reference | Corrected and normalised response (% of wild-type reference) [2]: 100 % of wild-type reference | Corrected and normalised response (% of wild-type reference) [3]: 100 % of wild-type reference | Corrected and normalised response (% of wild-type reference) [4]: 99.7 % of wild-type reference

B9: anti-CD20 (rituximab) human IgG1 L234K/L235R/G236R (antibody)
heavy: B2 heavy with R238K, K239R
light: B1 light
notes: EU numbering; also called 2-23; 1-88; copies: 2 + 2
Corrected and normalised response (% of wild-type reference) [1]: 101 % of wild-type reference | Corrected and normalised response (% of wild-type reference) [2]: 100 % of wild-type reference | Mean Absorbance [5]: 0.059 absorbance (450 nm) | Corrected and normalised response (% of wild-type reference) [3]: 99.5 % of wild-type reference | Corrected and normalised response (% of wild-type reference) [4]: 99.6 % of wild-type reference

B10: anti-CD20 (rituximab) human IgG1 L234T/L235R/G236R (antibody)
heavy: B2 heavy with R238T, K239R
light: B1 light
notes: EU numbering; also called 2-61; copies: 2 + 2
Mean Absorbance [5]: 0.047 absorbance (450 nm)

B11: anti-CD20 (rituximab) human IgG1 L234S/L235H/G236R (antibody)
heavy: B2 heavy with R238S, K239H
light: B1 light
notes: EU numbering; also called 2-48; copies: 2 + 2
Mean Absorbance [5]: 0.04 absorbance (450 nm)

B12: anti-CD20 human IgG1 L234T/L235I/G236R (antibody)
heavy: B2 heavy with R238T, K239I
light: B1 light
notes: also called 2-57; 1-157
Corrected response (RU), Mean [6]: 16.2 RU | Corrected response (RU) [7]: 17.3 RU | Corrected response (RU) [8]: 7.2 RU | Corrected response (RU) [9]: 24.2 RU

B13: anti-CD20 (rituximab) human IgG1 L234S/L235R/G236R (antibody)
heavy: B2 heavy with R238S, K239R
light: B1 light
notes: EU numbering; also called 2-51; copies: 2 + 2
Mean Absorbance [5]: 0.037 absorbance (450 nm)

B14: anti-CD20 human IgG1 L234S/G236R (antibody)
heavy: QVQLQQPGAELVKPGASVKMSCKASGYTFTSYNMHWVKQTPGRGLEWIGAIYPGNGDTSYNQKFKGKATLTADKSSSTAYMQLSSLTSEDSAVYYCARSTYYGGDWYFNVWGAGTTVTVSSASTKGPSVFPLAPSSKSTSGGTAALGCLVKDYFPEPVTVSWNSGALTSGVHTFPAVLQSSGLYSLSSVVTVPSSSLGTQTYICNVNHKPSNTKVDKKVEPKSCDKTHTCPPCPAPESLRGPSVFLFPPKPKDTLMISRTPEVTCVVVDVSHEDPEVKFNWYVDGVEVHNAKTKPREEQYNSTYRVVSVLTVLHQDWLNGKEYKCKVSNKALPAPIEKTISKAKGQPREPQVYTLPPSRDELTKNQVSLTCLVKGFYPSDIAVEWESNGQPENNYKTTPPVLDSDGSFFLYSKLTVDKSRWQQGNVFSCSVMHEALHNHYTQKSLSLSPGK
light: B1 light
notes: also called 2-50
Corrected response (RU), Mean [6]: 28.7 RU | Corrected response (RU) [7]: 21.6 RU | Corrected response (RU) [8]: 33.7 RU | Corrected response (RU) [9]: 30.9 RU

B15: anti-CD20 (rituximab) human IgG1 L234D/L235K/G236R (antibody)
heavy: B2 heavy with R238D
light: B1 light
notes: EU numbering; also called 2-7; 1-23; copies: 2 + 2
Corrected and normalised response (% of wild-type reference) [1]: 94.9 % of wild-type reference | Corrected and normalised response (% of wild-type reference) [2]: 94.3 % of wild-type reference | Mean Absorbance [5]: 0.049 absorbance (450 nm) | Corrected and normalised response (% of wild-type reference) [3]: 94.1 % of wild-type reference | Corrected and normalised response (% of wild-type reference) [4]: 93.7 % of wild-type reference

B16: anti-CD20 (rituximab) human IgG1 L234R/L235H/G236R (antibody)
heavy: B2 heavy with K239H
light: B1 light
notes: EU numbering; also called 2-38; copies: 2 + 2
Mean Absorbance [5]: 0.062 absorbance (450 nm)

B17: anti-CD20 (rituximab) human IgG1 L234Q/L235T/G236R (antibody)
heavy: B2 heavy with R238Q, K239T
light: B1 light
notes: EU numbering; also called 1-120; copies: 2 + 2
Corrected and normalised response (% of wild-type reference) [1]: 95.6 % of wild-type reference | Corrected and normalised response (% of wild-type reference) [2]: 95.3 % of wild-type reference | Corrected and normalised response (% of wild-type reference) [3]: 95.2 % of wild-type reference | Corrected and normalised response (% of wild-type reference) [4]: 95.1 % of wild-type reference

B18: anti-CD20 human IgG1 L234T/L235A/G236R (antibody)
heavy: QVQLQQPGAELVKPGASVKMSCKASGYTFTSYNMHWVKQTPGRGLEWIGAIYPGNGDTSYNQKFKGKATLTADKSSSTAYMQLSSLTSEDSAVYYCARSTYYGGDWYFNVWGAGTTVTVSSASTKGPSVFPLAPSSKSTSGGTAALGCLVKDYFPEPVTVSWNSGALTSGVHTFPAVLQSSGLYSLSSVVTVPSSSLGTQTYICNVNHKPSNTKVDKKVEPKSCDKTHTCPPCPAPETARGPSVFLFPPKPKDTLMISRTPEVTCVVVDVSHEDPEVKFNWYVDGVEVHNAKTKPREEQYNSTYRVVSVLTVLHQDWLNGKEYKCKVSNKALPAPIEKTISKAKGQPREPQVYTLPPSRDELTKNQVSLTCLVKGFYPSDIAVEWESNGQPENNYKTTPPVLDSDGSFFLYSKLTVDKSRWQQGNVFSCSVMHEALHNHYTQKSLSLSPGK
light: B1 light
notes: also called 2-54; 1-152
Corrected response (RU), Mean [6]: 5.4 RU | Corrected response (RU) [7]: 4.8 RU | Corrected response (RU) [8]: 4.3 RU | Corrected response (RU) [9]: 7.2 RU

B19: anti-CD20 (rituximab) human IgG1 L234K/L235V/G236R (antibody)
heavy: B2 heavy with R238K, K239V
light: B1 light
notes: EU numbering; also called 2-26; 1-91; copies: 2 + 2
Corrected and normalised response (% of wild-type reference) [1]: 101 % of wild-type reference | Corrected and normalised response (% of wild-type reference) [2]: 101 % of wild-type reference | Mean Absorbance [5]: 0.073 absorbance (450 nm) | Corrected and normalised response (% of wild-type reference) [3]: 100 % of wild-type reference | Corrected and normalised response (% of wild-type reference) [4]: 100 % of wild-type reference
